Source: patent US20120087858A1 (AbbVie / Abbott, published 2012)
Each block holds one binder with its values, some of them ahead of it.

Legend:
[1] = target: T1, Recombinant Human TNF-α/TNFSF1A (human, UniProt P01375 77-233); assay: cell-based or functional assay
[2] = target: T1, Recombinant Human TNF-α/TNFSF1A; assay: Biacore SPR
Description: (§1) The BIACORE assay (Biacore, Inc, Piscataway, N.J.) determines the affinity of antibodies or DVD-Ig with kinetic measurements of on-rate and off-rate constants. Binding of antibodies or DVD-Ig to a target antigen (for example, a purified recombinant target antigen) is determined by surface plasmon resonance-based measurements with a Biacore® 1000 or 3000 instrument (Biacore® AB, Uppsala, Sweden) using running HBS-EP (10 mM HEPES [pH 7.4], 150 mM NaCl, 3 mM EDTA, and 0.005% surfactant P20) at 25° C. All chemicals are obtained from Biacore® AB (Uppsala, Sweden) or otherwise from a different source as described in the text. For example, approximately 5000 RU of goat anti-mouse IgG, (Fcγ), fragment specific polyclonal antibody (Pierce Biotechnology Inc, Rockford, Ill.) diluted in 10 mM sodium acetate (pH 4.5) is directly immobilized across a CMS research grade biosensor chip using a standard amine coupling kit according to manufacturer's instructions and procedures at 25 μg/ml. Unreacted moieties on the biosensor surface are blocked with ethanolamine. Modified carboxymethyl dextran surface in flowcell 2 and 4 is used as a reaction surface. Unmodified carboxymethyl dextran without goat anti-mouse IgG in flow cell 1 and 3 is used as the reference surface. For kinetic analysis, rate equations derived from the 1:1 Langmuir binding model are fitted simultaneously to association and dissociation phases of all eight injections (using global fit analysis) with the use of Biaevaluation 4.0.1 software. Purified antibodies or DVD-Ig are diluted in HEPES-buffered saline for capture across goat anti-mouse IgG specific reaction surfaces. Antibodies or DVD-Ig to be captured as a ligand (25 μg/ml) are injected over reaction matrices at a flow rate of 5 μl/min. The association and dissociation rate constants, kₒₙ (M⁻¹s⁻) and koff(s⁻¹) are determined under a continuous flow rate of 25 μl/min. Rate constants are derived by making kinetic binding measurements at different antigen concentrations ranging from 10-200 nM. The equilibrium dissociation constant (M) of the reaction between antibodies or DVD-Igs and the target antigen is then calculated from the kinetic rate constants by the following formula: KD=koff/kₒₙ. Binding is recorded as a function of time and kinetic rate constants are calculated.

[3] = target: T2, Recombinant Human SOST (human, UniProt Q9BQB4 24-213); assay: Biacore SPR
T2 construct: Biacore reagent from R&D Systems; the Wnt-1/luciferase assay used Human Sclerostin (Abbott PR-1261069); also called Sclerostin; Human Sclerostin
T2 sequence (looked up): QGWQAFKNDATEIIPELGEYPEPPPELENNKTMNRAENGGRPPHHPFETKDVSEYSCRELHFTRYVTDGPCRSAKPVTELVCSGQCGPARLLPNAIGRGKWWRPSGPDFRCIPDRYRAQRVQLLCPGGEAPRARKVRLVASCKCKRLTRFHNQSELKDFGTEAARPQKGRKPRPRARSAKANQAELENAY
Description: as §1

T1 sequence (P01375 77-233 limits assumed): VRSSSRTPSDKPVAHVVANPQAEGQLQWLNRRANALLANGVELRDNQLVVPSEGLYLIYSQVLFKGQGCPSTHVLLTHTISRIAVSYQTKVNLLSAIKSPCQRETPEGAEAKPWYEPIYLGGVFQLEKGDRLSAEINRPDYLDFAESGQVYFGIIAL

B1: DVD1476 (bispecific antibody, human IgG1, kappa)
heavy: not shown
light: DVQMIQSPSSLSASLGDIVTMTCQASQGTSINLNWFQQKPGKAPKLLIYGSSNLEDGVPSRFSGSRYGTDFTLTISSLEDEDLATYFCLQHSYLPYTFGGGTKLEIKRTVAAPSVFIFPPDIQMTQSPSSLSASVGDRVTITCRASQGIRIDLGWYQQKPGKAPKRLIYAASTLQSGVPSRFSGSGSGTEFIFTISSLQPEDFASYYCLQHKSYPLTFGGGTKVEIKRTVAAPSVFIFPPSDEQLKSGTASVVCLLNNFYPREAKVQWKVDNALQSGNSQESVTEQDSKDSTYSLSSTLTLSKADYEKHKVYACEVTHQGLSSPVTKSFNRGEC
TNFα Neutralization Assay EC50 (L929 cells) [1]: 0.139 nM

B3: DVD1448 (bispecific antibody, human IgG1, kappa)
heavy: not shown
light: DVLMTQTPLSLPVTPGEPASISCTSSQNIVHSNGNTYLEWYLQKPGQSPQLLIYKVSNRFSGVPDRFSGSGSGTDFTLKISRVEAEDVGVYYCFQVSHVPYTFGGGTKVEIKRTVAAPSVFIFPPDIVMTQSHKFMSTTVGDRVSITCKASQAVSSAVAWYQQKPGQSPKLLIYWASTRHTGVPDRFTGSGSVTDFTLTIHNLQAEDLALYYCQQHYSTPFTFGSGTKLEIKRTVAAPSVFIFPPSDEQLKSGTASVVCLLNNFYPREAKVQWKVDNALQSGNSQESVTEQDSKDSTYSLSSTLTLSKADYEKHKVYACEVTHQGLSSPVTKSFNRGEC
TNFα Neutralization Assay EC50 (L929 cells) [1]: 1.39 nM

B4: AB217 (antibody, V domains shown)
VH: QVQLVESGGGVVQPGRSLRLSCAASGFTFSSYDMHWVRQAPGKGLEWVAVIWSDGSIKYYADSVKGRFTISRDNSKNTLYLQMNSLRAEDTAVYYCAREVESAMGGFYYNGMDVWGQGTTVTVSS
VL: DIQMTQSPSSLSASVGDRVTITCRASQGIRIDLGWYQQKPGKAPKRLIYAASTLQSGVPSRFSGSGSGTEFIFTISSLQPEDFASYYCLQHKSYPLTFGGGTKVEIKR
notes: Parent antibody
Kd [2]: 0.0272 nM
koff [2]: 5.04e-05 s⁻¹
kon [2]: 1.85e+06 M⁻¹ s⁻¹
TNFα Neutralization Assay EC50 (L929 cells) [1]: 0.0762 nM

B6: AB218 (antibody, V domains shown)
VH: EVQLVESGGGLIQPGGSLRLSCAASGFTVSRNYMSWVRQAPGKGLEWVSVIYSGDRTYYADSVKGRFTISRDNSKNTLYLQMNSLRAEDTAVYYCARGEGGFDYWGQGTLVTVSS
VL: EIVMTQSPATLSVSPGERATLSCRASQSVSSNLAWYQQKPGQAPRLLIHGASIRATGLPARFSGSGSGTEFTLTISSLQSEDFAVYYCQQYNYWWTFGQGTKVEIKR
notes: Parent antibody
Kd [2]: 0.0288 nM
koff [2]: 5.15e-05 s⁻¹
kon [2]: 1.79e+06 M⁻¹ s⁻¹
TNFα Neutralization Assay EC50 (L929 cells) [1]: 0.045 nM

B7: AB022 (antibody, V domains shown)
VH: EVQLQQSGPELVTPGASVKISCKASGYTFTDHYMSWVKQSHGKSLEWIGDINPYSGETTYNQKFKGTATLTVDKSSSIAYMEIRGLTSEDSAVYYCARDDYDASPFAYWGQGTLVTVSA
VL: DVQMIQSPSSLSASLGDIVTMTCQASQGTSINLNWFQQKPGKAPKLLIYGSSNLEDGVPSRFSGSRYGTDFTLTISSLEDEDLATYFCLQHSYLPYTFGGGTKLEIKR
notes: Parent antibody; also called SOST parent antibody
Kd [3]: 0.0408 nM
koff [3]: 0.000396 s⁻¹
kon [3]: 9.68e+06 M⁻¹ s⁻¹

B8: DVD1474 (bispecific antibody, human IgG1, kappa)
heavy: not shown
light: DVLMTQTPLSLPVTPGEPASISCTSSQNIVHSNGNTYLEWYLQKPGQSPQLLIYKVSNRFSGVPDRFSGSGSGTDFTLKISRVEAEDVGVYYCFQVSHVPYTFGGGTKVEIKRTVAAPSVFIFPPDIQMTQSPSSLSASVGDRVTITCRASQGIRIDLGWYQQKPGKAPKRLIYAASTLQSGVPSRFSGSGSGTEFIFTISSLQPEDFASYYCLQHKSYPLTFGGGTKVEIKRTVAAPSVFIFPPSDEQLKSGTASVVCLLNNFYPREAKVQWKVDNALQSGNSQESVTEQDSKDSTYSLSSTLTLSKADYEKHKVYACEVTHQGLSSPVTKSFNRGEC
TNFα Neutralization Assay EC50 (L929 cells) [1]: 0.273 nM

B12: AB213 (antibody, V domains shown)
VH: QVQLKESGPGLVAPSQSLSITCTVSGFSLTDYGVNWVRQPPGKGLEWLGMIWGDGSTDYDSTLKSRLSISKDNSKSQIFLKMNSLQTDDTARYYCAREWHHGPVAYWGQGTLVTVSA
VL: DIVMTQSHKFMSTTVGDRVSITCKASQAVSSAVAWYQQKPGQSPKLLIYWASTRHTGVPDRFTGSGSVTDFTLTIHNLQAEDLALYYCQQHYSTPFTFGSGTKLEIKR
notes: Parent antibody
Kd [2]: 0.0335 nM
koff [2]: 0.000108 s⁻¹
kon [2]: 3.23e+06 M⁻¹ s⁻¹
TNFα Neutralization Assay EC50 (L929 cells) [1]: 0.124 nM

B13: DVD1475 (bispecific antibody, human IgG1, kappa)
heavy: not shown
light: DIQMTQSPSSLSASVGDRVTITCRASQGIRIDLGWYQQKPGKAPKRLIYAASTLQSGVPSRFSGSGSGTEFIFTISSLQPEDFASYYCLQHKSYPLTFGGGTKVEIKRTVAAPSVFIFPPDVQMIQSPSSLSASLGDIVTMTCQASQGTSINLNWFQQKPGKAPKLLIYGSSNLEDGVPSRFSGSRYGTDFTLTISSLEDEDLATYFCLQHSYLPYTFGGGTKLEIKRTVAAPSVFIFPPSDEQLKSGTASVVCLLNNFYPREAKVQWKVDNALQSGNSQESVTEQDSKDSTYSLSSTLTLSKADYEKHKVYACEVTHQGLSSPVTKSFNRGEC
notes: DVD-Ig; linker set 2; also called DVD1475H; DVD1475L
Kd [2]: 0.013 nM
koff [2]: 3.6e-05 s⁻¹
kon [2]: 2.7e+06 M⁻¹ s⁻¹
Kd [3]: 0.9 nM
koff [3]: 0.00073 s⁻¹
kon [3]: 810000 M⁻¹ s⁻¹
TNFα Neutralization Assay EC50 (L929 cells) [1]: 0.002 nM

The next lines start with the values.

TNFα Neutralization Assay EC50 (L929 cells) [1]: 0.89 nM
B2: DVD1518 (bispecific antibody, human IgG1, kappa)
heavy: not shown
light: DVQMIQSPSSLSASLGDIVTMTCQASQGTSINLNWFQQKPGKAPKLLIYGSSNLEDGVPSRFSGSRYGTDFTLTISSLEDEDLATYFCLQHSYLPYTFGGGTKLEIKRTVAAPDIQMTQSPSSLSASVGDRVTITCRASQGIRIDLGWYQQKPGKAPKRLIYAASTLQSGVPSRFSGSGSGTEFIFTISSLQPEDFASYYCLQHKSYPLTFGGGTKVEIKRTVAAPSVFIFPPSDEQLKSGTASVVCLLNNFYPREAKVQWKVDNALQSGNSQESVTEQDSKDSTYSLSSTLTLSKADYEKHKVYACEVTHQGLSSPVTKSFNRGEC

TNFα Neutralization Assay EC50 (L929 cells) [1]: 0.133 nM
B5: DVD1507 (bispecific antibody, human IgG1, kappa)
heavy: not shown
light: DIVMTQSHKFMSTTVGDRVSITCKASQAVSSAVAWYQQKPGQSPKLLIYWASTRHTGVPDRFTGSGSVTDFTLTIHNLQAEDLALYYCQQHYSTPFTFGSGTKLEIKRTVAAPDVVMTQTPLSLPVSLGDQASISCTSGQSLVHINGNTYLHWYLQKPGQSPKLLIYKVSNLFSGVPDRFSGSGSGTDFTLKISRVEAEDLGVYFCSQSTHFPFTFGTGTKLEIKRTVAAPSVFIFPPSDEQLKSGTASVVCLLNNFYPREAKVQWKVDNALQSGNSQESVTEQDSKDSTYSLSSTLTLSKADYEKHKVYACEVTHQGLSSPVTKSFNRGEC

TNFα Neutralization Assay EC50 (L929 cells) [1]: 0.085 nM
B9: DVD1496 (bispecific antibody, human IgG1, kappa)
heavy: not shown
light: DVQMIQSPSSLSASLGDIVTMTCQASQGTSINLNWFQQKPGKAPKLLIYGSSNLEDGVPSRFSGSRYGTDFTLTISSLEDEDLATYFCLQHSYLPYTFGGGTKLEIKRTVAAPDIVMTQSHKFMSTTVGDRVSITCKASQAVSSAVAWYQQKPGQSPKLLIYWASTRHTGVPDRFTGSGSVTDFTLTIHNLQAEDLALYYCQQHYSTPFTFGSGTKLEIKRTVAAPSVFIFPPSDEQLKSGTASVVCLLNNFYPREAKVQWKVDNALQSGNSQESVTEQDSKDSTYSLSSTLTLSKADYEKHKVYACEVTHQGLSSPVTKSFNRGEC

TNFα Neutralization Assay EC50 (L929 cells) [1]: 8.71 nM
B10: DVD1516 (bispecific antibody, human IgG1, kappa)
heavy: not shown
light: DVLMTQTPLSLPVTPGEPASISCTSSQNIVHSNGNTYLEWYLQKPGQSPQLLIYKVSNRFSGVPDRFSGSGSGTDFTLKISRVEAEDVGVYYCFQVSHVPYTFGGGTKVEIKRTVAAPDIQMTQSPSSLSASVGDRVTITCRASQGIRIDLGWYQQKPGKAPKRLIYAASTLQSGVPSRFSGSGSGTEFIFTISSLQPEDFASYYCLQHKSYPLTFGGGTKVEIKRTVAAPSVFIFPPSDEQLKSGTASVVCLLNNFYPREAKVQWKVDNALQSGNSQESVTEQDSKDSTYSLSSTLTLSKADYEKHKVYACEVTHQGLSSPVTKSFNRGEC

TNFα Neutralization Assay EC50 (L929 cells) [1]: 4.18 nM
B11: DVD1522 (bispecific antibody, human IgG1, kappa)
heavy: not shown
light: DVVMTQTPLSLPVSLGDQASISCTSGQSLVHINGNTYLHWYLQKPGQSPKLLIYKVSNLFSGVPDRFSGSGSGTDFTLKISRVEAEDLGVYFCSQSTHFPFTFGTGTKLEIKRTVAAPDIQMTQSPSSLSASVGDRVTITCRASQGIRIDLGWYQQKPGKAPKRLIYAASTLQSGVPSRFSGSGSGTEFIFTISSLQPEDFASYYCLQHKSYPLTFGGGTKVEIKRTVAAPSVFIFPPSDEQLKSGTASVVCLLNNFYPREAKVQWKVDNALQSGNSQESVTEQDSKDSTYSLSSTLTLSKADYEKHKVYACEVTHQGLSSPVTKSFNRGEC
